Measurements reported in article PMC10377887, “Individual Contributions of Amido Acid Residues Tyr122, Ile168, and Asp173 to the Activity and Substrate Specificity of Human DNA Dioxygenase ABH2”.

T1: ABH2 WT (human, UniProt Q6NS38 1-261)
T1 sequence: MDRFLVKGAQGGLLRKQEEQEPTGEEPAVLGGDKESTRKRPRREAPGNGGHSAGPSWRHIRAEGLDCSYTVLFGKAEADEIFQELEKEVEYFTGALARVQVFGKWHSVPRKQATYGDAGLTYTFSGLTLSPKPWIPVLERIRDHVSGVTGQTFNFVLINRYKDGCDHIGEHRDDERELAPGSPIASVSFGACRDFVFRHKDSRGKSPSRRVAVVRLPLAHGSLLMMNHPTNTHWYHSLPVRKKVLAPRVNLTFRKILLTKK


Molecular target: T1, ABH2 WT
Assay: EMSA; 0.5 mM αKG, 10 mM Mg2+, 2 mM ascorbate; EMSA: 50 mM Tris-HCl pH 8.0, 50 mM KCl, 10 mM MgCl2, 0.5 mM αKG, 2 mM Na ascorbate; 1.2 µM DNA, 0.4-12.8 µM protein; 10 min 37 °C then 5 min on ice; 10% native
Conditions: protein: recombinant; tags: N-terminal His6; label: 5'-FAM on strand 1; blunt

| Binder | Kd [nM] |
| --- | --- |
| m1A (dsDNA, N1-methyladenine at position 10 of strand 1) DNA 1: AGTTCAATGATCTTCAT DNA 2: ATGAAGATCATTGAACT | 2450 ± 70 |
| m3C (dsDNA, N3-methylcytosine at position 12 of strand 1) DNA 1: AGTTCAATGATCTTCAT DNA 2: ATGAAGATCATTGAACT | 3500 ± 100 |
